These results are taken from the supplement of paper PMC10126150.

The test system of this series is ATP. Kind of series: switch fluorescence ratio, 500 uM ATP over buffer (Cy3 cluster intensity, sum of 5 cycles each) (fold (ratio)); higher = stronger signal-on switching upon ATP binding; sequences stand for … in TCGTCGGCAGCGTCAGATGTGTATAAGAGACAGTTTTTTTTTTTTTTTTTTTTTTTTT…TC. To be noted: aptamer strand: ATP DNA aptamer (quencher-CACCTGGGGGAGTATTGCGGAGGAAGG + anchor), 100 nM annealed; ATP concentration: 500 uM. Put shortly: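 Five buffer/ATP imaging cycles were run on Cy3-labelled switching-strand clusters on a modified Illumina MiSeq flow-cell, with NaOH stripping and re-annealing between cycles. In each cycle, clusters annealed to 100 nM quencher-labelled ATP aptamer were imaged in selection buffer, then after 15 min with 500 uM ATP at 22 °C. Per cluster, the fluorescence ratio is summed target-cycle over summed buffer-cycle Cy3 intensity, averaged per switch-domain sequence. Only clusters within 100-1000 RFU were kept.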

± gives the standard deviation of the averaged measurements.
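Also: ATP exposure 15 min at 22 °C before imaging.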

As for CTGATATGCG, the switch fluorescence ratio was 0.997 ± 0.023.
Consider AAAATAGTGT, for which the switch fluorescence ratio stood at 1.013 ± 0.01.
On to TTCCGTCACG, for which the switch fluorescence ratio was determined as 1.08 ± 0.043.
TTCAAGTGTA: the switch fluorescence ratio was 1.01 ± 0.022.
As to ACTACTGGTT, the switch fluorescence ratio was determined as 1.03 ± 0.03.
Consider CTCAATACTT, for which the switch fluorescence ratio was 1.786 ± 0.0034.
As for TGGTGGCGGT, the switch fluorescence ratio was determined as 1.01 ± 0.075.
On to TATCCCGGCG, for which the switch fluorescence ratio came to 0.9977 ± 0.0082.
Consider TAGCATTCTA, for which the switch fluorescence ratio is 1.013 ± 0.0054.
For ATGGGCATTA, the switch fluorescence ratio was determined as 1 ± 0.017.
Consider TTGTTGGAGT, for which the switch fluorescence ratio was 0.985 ± 0.018.
As for ATGAGCATCT, the switch fluorescence ratio worked out at 0.996 ± 0.01.
Under GATCTGGGGC stands 1.06 ± 0.036.
Turning to TGTTCCGACT, the switch fluorescence ratio worked out at 1.05 ± 0.051.
Regarding TTTTGAGGAC, the switch fluorescence ratio amounted to 1.034 ± 0.0035.
For CAGGTCGGCT, the switch fluorescence ratio turned out to be 0.995 ± 0.052.
With GTTTTTGGTT, the switch fluorescence ratio came out at 1 ± 0.028.
On to CCGTTATCTC, for which the switch fluorescence ratio was determined as 2.81 ± 1.
For the sequence GATATTGGGC, the switch fluorescence ratio amounted to 1.02 ± 0.024.
With GAGAAATGAT, the switch fluorescence ratio came out at 0.984 ± 0.0087.
For CAGGGACTGG, the switch fluorescence ratio came out at 1 ± 0.072.
Regarding CATTCTTTGG, the switch fluorescence ratio is 0.9836 ± 0.0041.
Regarding GCAGCTGGTT, the switch fluorescence ratio turned out to be 0.994 ± 0.026.
Regarding CCGAACACCT, the switch fluorescence ratio turned out to be 1.219 ± 0.0037.
Under ATTCCGGCGG stands 0.976 ± 0.015.
As for CTCATCGTTC, the switch fluorescence ratio was found to be 0.99555 ± 0.00034.
On to TTTTCAACAC, for which the switch fluorescence ratio is 1.04 ± 0.033.
With GGCCCCCGGT, the switch fluorescence ratio amounted to 1.1 ± 0.068.
As to CGGTGAGTTG, the switch fluorescence ratio worked out at 1.03 ± 0.04.
Turning to TGATGGGACT, the switch fluorescence ratio turned out to be 1.01 ± 0.029.
In the case of ATGCATGGAC, the switch fluorescence ratio worked out at 1.11 ± 0.12.
Take ATCGAGCATG: the switch fluorescence ratio was 1.03 ± 0.051.
Turning to CGATGGTACG, the switch fluorescence ratio came out at 0.946 ± 0.05.
Regarding AAAAAAAGGA, the switch fluorescence ratio worked out at 1.01 ± 0.021.
Take TTTTGGGTCC: the switch fluorescence ratio was found to be 1.06 ± 0.04.
Under TTTGGGCTTC stands 1.0067 ± 0.00097.
The result for TCTTAAAATT reads 1.012 ± 0.0091.
On to TGTTACCTGA, for which the switch fluorescence ratio was found to be 1.058 ± 0.01.
For CATTTTGTTG, the switch fluorescence ratio came to 1.01 ± 0.024.
As to GTTAGTGTAG, the switch fluorescence ratio stood at 0.9975 ± 0.0011.
For the sequence CTGTCTGAGT, the switch fluorescence ratio came to 0.9632 ± 0.007.
Turning to CTGGTTAGGG, the switch fluorescence ratio was 0.98 ± 0.018.
On to GGATTTGGGG, for which the switch fluorescence ratio worked out at 0.9878 ± 0.0073.
Turning to GGAGGGCAGG, the switch fluorescence ratio was 0.9882 ± 0.0096.
Consider GCGATCCAAA, for which the switch fluorescence ratio is 1 ± 0.037.
On to AAAGGGTCGA, for which the switch fluorescence ratio was found to be 1.02 ± 0.03.
Take TTTGGGTGGA: the switch fluorescence ratio came out at 1.02 ± 0.05.
In the case of GCTAGTCTGA, the switch fluorescence ratio turned out to be 0.9954 ± 0.0019.
Turning to TTTACCCATC, the switch fluorescence ratio was 1.04 ± 0.033.
For GTTTCAAGCG, the switch fluorescence ratio is 1.02 ± 0.025.
Turning to TAAGGGGGG, the switch fluorescence ratio is 1.01 ± 0.029.
Regarding GCTGGGGGTG, the switch fluorescence ratio stood at 1.01 ± 0.012.
With TTTTCGGGAT, the switch fluorescence ratio came to 1.19 ± 0.42.
For the sequence GATGTTTGGT, the switch fluorescence ratio is 0.99 ± 0.021.
Take TATAGGGTTG: the switch fluorescence ratio amounted to 0.999 ± 0.033.
The result for TTGTCACAGG reads 1.09 ± 0.056.
Under TTACGGAAGT stands 1.11 ± 0.13; under TCGGGTGCGA, 1.04 ± 0.011.
Consider TATGTTACGG, for which the switch fluorescence ratio amounted to 1.03 ± 0.0075.
Turning to AAATCACGTC, the switch fluorescence ratio came out at 1.07 ± 0.019.
Under AAGTTGTTTC stands 0.988 ± 0.013.
As to TTTAGATATT, the switch fluorescence ratio stood at 0.98873 ± 0.00041.
For ACTCCGTCTT, the switch fluorescence ratio stood at 1.441 ± 0.0027.
Under GTGGGAGTTT stands 1.01 ± 0.043; under TTGCGTGCCG, 0.98 ± 0.11; under AATGTTATAT, 1.01 ± 0.014.
On to AAGGAATGCA, for which the switch fluorescence ratio was 0.993 ± 0.022.
As to CTGGGGTTGC, the switch fluorescence ratio came to 0.96 ± 0.03.
Turning to AGCTGGATGC, the switch fluorescence ratio is 1.04 ± 0.036.
With TCCTGGGTGT, the switch fluorescence ratio came to 2.23 ± 0.12.
For TTTGGGATTG, the switch fluorescence ratio was 1.07 ± 0.015.
In the case of TTCGAGGAGG, the switch fluorescence ratio was found to be 0.981 ± 0.017.
Turning to TTTTAAGGTC, the switch fluorescence ratio is 1.019 ± 0.0034.
For TGATCAGATC, the switch fluorescence ratio came to 1 ± 0.026.
Turning to TCTGTGAGTG, the switch fluorescence ratio was determined as 0.973 ± 0.014.
On to TATAAGAGAG, for which the switch fluorescence ratio was 1 ± 0.024.
Consider AGTGGGGACG, for which the switch fluorescence ratio stood at 1.031 ± 0.01.
Take AGCCTCCGGT: the switch fluorescence ratio is 1.13 ± 0.073.
With TCTAAGTCTT, the switch fluorescence ratio worked out at 0.98 ± 0.042.
Under TAAGGGGATC stands 0.987 ± 0.059.
As to AGGGATTTAA, the switch fluorescence ratio is 0.988 ± 0.022.
As to ATAGTCGCCC, the switch fluorescence ratio was determined as 1.009 ± 0.0031.
ATGTAATTTG: the switch fluorescence ratio worked out at 0.988 ± 0.03.
In the case of CTTCGGTGGC, the switch fluorescence ratio was 1.01 ± 0.04.
The result for ACATGATAGT reads 1.01 ± 0.043.
Consider TATAGAAAGT, for which the switch fluorescence ratio was 0.9981 ± 0.0066.
Turning to ATCATGTCTA, the switch fluorescence ratio came out at 1.04 ± 0.047.
For AAATCGTTCC, the switch fluorescence ratio was 2.14 ± 0.082.
As to ATGGGGAATT, the switch fluorescence ratio was 0.995 ± 0.035.
In the case of CATAGGGTTC, the switch fluorescence ratio is 0.9954 ± 0.0089.
In the case of TAGGTAGGGG, the switch fluorescence ratio amounted to 0.99 ± 0.036.
For TCCCCGGGCA, the switch fluorescence ratio is 0.995 ± 0.04.
With AGCCTTTGTC, the switch fluorescence ratio came to 0.982 ± 0.041.
As for TTTAGACTGG, the switch fluorescence ratio amounted to 1 ± 0.022.
Under GATGATAAAA stands 0.989 ± 0.033; under TTAGGTGTCC, 1.08 ± 0.057; under AGACAAGGGT, 1.01 ± 0.018.
On to CACTTGGGCG, for which the switch fluorescence ratio is 1.033 ± 0.0077.
Consider AAAAAATTAG, for which the switch fluorescence ratio worked out at 0.996 ± 0.05.
Take GTTGGTTAGA: the switch fluorescence ratio worked out at 0.9776 ± 0.005.
Under GCGGGAAACT stands 1.05 ± 0.032.
Take CCGGGTCGGT: the switch fluorescence ratio came out at 0.9554 ± 0.0036.
Consider AAGGGCAAAT, for which the switch fluorescence ratio amounted to 0.978 ± 0.015.
Consider AGAGGCTTGG, for which the switch fluorescence ratio came out at 0.997 ± 0.014.
In the case of TGCAAGGGGT, the switch fluorescence ratio amounted to 1.14 ± 0.16.
For the sequence TTAGTTGGTA, the switch fluorescence ratio was determined as 0.987 ± 0.001.
For the sequence CCAACCATTG, the switch fluorescence ratio worked out at 1.03 ± 0.011.
With TGAAGGGGGT, the switch fluorescence ratio came to 0.999 ± 0.032.
The result for GATTTAATCC reads 0.974 ± 0.032; that for GGCCAATAAT, 0.991 ± 0.016.
Under AAGTGAAACA stands 1.03 ± 0.037; under GTTGGATATT, 0.9976 ± 0.0064.
For GATAGTGGGA, the switch fluorescence ratio is 0.997 ± 0.018.
The result for GTATAATTGT reads 0.984 ± 0.019; that for TGCATTTTGT, 0.989 ± 0.018.
As to TATACAATGG, the switch fluorescence ratio stood at 1.01 ± 0.024.
For GTTAACTCGG, the switch fluorescence ratio was determined as 0.985 ± 0.047.
AGTGTGGGGG: the switch fluorescence ratio is 1.01 ± 0.029.
For the sequence TTGGGAATAA, the switch fluorescence ratio stood at 1.02 ± 0.0046.
On to ATGGTAACGG, for which the switch fluorescence ratio worked out at 0.965 ± 0.042.
